From the nanobody polyreactivity screen of Harvey et al. (2022)

experiment: yeast display, Sf9 membrane polyspecificity reagent, FACS + sequencing; frameworks hold sequencing errors
Outline: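 Sorting gates, low and high (top ~1%), were placed on anti-HA fluorescence to track expression and on streptavidin fluorescence to track reagent binding. A clone's polyreactivity label is taken from the gate it came out of. The reagent was 10% biotinylated, detergent-solubilized Sf9 membrane, applied for 1 hour at 4 °C to galactose-induced yeast display cells.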

| Sequence | polyreactivity (PSR sort gate) |
| --- | --- |
| QVQLVESGGGLVQAGGSLRLSCAASGSTFDKNAMGWYRQAPGKERELVDAISIGVSTNYADSVKGRFTISRDNAKNTVYLQMNSLKPEDTAVYYCAADLFFGAETVYYDKFDYWGQGTQVTVSS | low polyreactivity |
| QVQLVESGGGLVQAGGSLRLSCAASGSTFDNYAMGWNRQAPGKERELVADITWSGGSTYYADSVKGRFTSSRDNAKNTVYLQMNSLKPEDSAVYYCNSAGYYTKYDYWGQGTQVTVSS | low polyreactivity |
| QVQLVESGGGLVQAGGSLRLSCAASGSTFDPNAMGWYRHAPGKERELVAAIDSGGSSYYADSVKGRFTISRDNAKYTVYLQMNSLKPEDTAVYYCASNIVGRSPYDSNYDFEYWGQGTQVTVSS | low polyreactivity |
| QVQLVESGGGLVQAGGSLRLSCAASGSTFDPNAMGWYRQAPGKERELVAVIDSGDGTTNYADSVKGRFTISRDNAKNTVYLQMNSLKPEDTAVYYCNKDTLVYGYVQDYEYWGQGTQVTVSS | low polyreactivity |
| QVQLVESGGGLVQAGGSLRLSCAASGSTFDPNAMGWYRQAPGKETELVAAIDSGGSTYYADSVKGRFTISRDNAKNTVYLQMNSLKPEDTAVYYCATKQPTWVPRVIISYTKFDYWGQGTQVTVSS | low polyreactivity |
| QVQLVESGGGLVQAGGSLRLSCAASGSTFDPYAMGCYRQAAGKEREFVAYIDSSVGSTFYADSVKGRFTISRDNAKNTVYLQMNSLKPEDTAVYYCAAASRVAKGRWRLYDYWGQGTQVTVSS | high polyreactivity |
| QVQLVESGGGLVQAGGSLRLSCAASGSTFDPYGMGWYRQAPGKERELVAAITSSGRTNYADSVKGRFTISRDNAKNTVYLQMKSLKPEDTAVYYCATRKERYFYRGYEYWGQGTQVTVSS | low polyreactivity |
| QVQLVESGGGLVQAGGSLRLSCAASGSTFDQNTMGWYREAPGKERELVASITGGDSTNYADSVKGRFTISRDNAKNTVYLQMNSLKPEDTAVYYCAADKLYQPGIGDDYWGQGTQVTVSS | low polyreactivity |
| QVQLVESGGGLVQAGGSLRLSCAASGSTFDSNAMGWYRQAPGKERELVAAIRFSGGSTNYADSVKGRFTISRDKAKNTVYLQINSLKPEDTAVYYCAARYPNLRSRWYYYWGQGPQVTVSS | high polyreactivity |
| QVQLVESGGGLVQAGGSLRLSCAASGSTFDSYAMGWSRQAPGKERELVARINDSGGSTYYADSVKGRFTISRDNAKNTVYLHMNSLKPEDTAVYYCNAYSWYFLPNMDYWGQGTQVTVSS | low polyreactivity |
| QVQLVESGGGLVQAGGSLRLSCAASGSTFDSYAMGWYRQAPGKERELVAAISSGGSTNYADSVKGRFTISRDNAKNTVYLQMNSLKPEDTAVYYCAAYGGHIWWLYRHYGYDYWGQGTQVTVSS | low polyreactivity |
| QVQLVESGGGLVQAGGSLRLSCAASGSTFDSYAMGWYRQAPGKERELVAAITNGGSTYYADSVKGRFTISRDNAKNTVYLQMNSLKPEDTAVYYCATDDYLLDYLYDYWGQGTQVTVSS | low polyreactivity |
| QVQLVESGGGLVQAGGSLRLSCAASGSTFDSYAMGWYRQAPGKERELVAVINSGGSTNYADSVKGRFTISRDNAKNTVYLLMNSLKPEDTAVYYCSAEERYRWHVVGWGYWYDYWGQGTQVTVSS | low polyreactivity |
| QVQLVESGGGLVQAGGSLRLSCAASGSTFDSYAMGWYSQAPGKERELVAAITYSGGRTYYADSVKGRFTISRDNAKNTVYLQMNSLKPEDTAVYYCAATGVFRDEYWGQGTQVTVSS | low polyreactivity |
| QVQLVESGGGLVQAGGSLRLSCAASGSTFDSYARVWYRQAPGKETELVARISIVGSTNYADSVKGRFTISRANAKNTVYLQMNCLKPDDTAVYYCAADRDWQYSFRHSVYGYDYDYWGQGTLVTVSS | low polyreactivity |
| QVQLVESGGGLVQAGGSLRLSCAASGSTFDTNAMGWYRQAPGKERELVAAISASGGSTYYADSVKGRFTISRDNAKNTVYLQMNSLKPEDTAVYDCAAKTRGQQRKFDYWGQGSQVTVSS | high polyreactivity |
| QVQLVESGGGLVQAGGSLRLSCAASGSTFDTNTMGWYIQAPGKERELVAAITSSGTSTSYADSVKGRFTISRDNAKNTVYLQMNSLKPEDTAVYYCAALRPGGGDYSDYDYWGQGTQVSVSS | low polyreactivity |
| QVQLVESGGGLVQAGGSLRLSCAASGSTFDTYAMGWYRQAPGKEREFVATITGSGGSTYYADSVKVRFTITRDNAKNTVYLQMNSLKPEDTAVYYCNAETYIDLRGKFPVEYDYWGQGTQVTVSS | low polyreactivity |
| QVQLVESGGGLVQAGGSLRLSCAASGSTFDTYAMGWYRQAPGKERELVAAISRSGTSTYYADSVKGRFTISRDNAKNTVYLQMISLKPEDTAVYYCDKDAGLQKYHHDYWGQGTQVTVSS | low polyreactivity |
| QVQLVESGGGLVQAGGSLRLSCAASGSTFDTYAMGWYRQAPGKERELVAAISRSGTSTYYADSVKGRFTISRDNAKNTVYLQMKSLKPEDTAVYYCAAYGPRVNGEIGREYYYWGQGTQVTVSS | low polyreactivity |
| QVQLVESGGGLVQAGGSLRLSCAASGSTFDVNAMGSYRQAPGKERELVAAISWNSGSTYYADSVKGRFTISRDNAKNTVYLQMNSLKPEDTAVYYCAATYGTGRRSKYGYWGQGTQVTVSS | high polyreactivity |
| QVQLVESGGGLVQAGGSLRLSCAASGSTFDVNTMGWYRQAPGTERELVAAIRLRGGSTYYADSVKGRFTISRDNAKNTVYLQMNSLKPEDTAVYYCAADYTLIYDYWGQGTQVTVSS | low polyreactivity |

| Sequence | polyreactivity (PSR sort gate) |
| --- | --- |
| QVQLVESGGGLVQAGGSLRLSCAASGSTFDVYVMGWYRQAPGKERELVAAISSGDDTNYADSVKGRFTISRDNAKNTVYLQMNSLKPEDTAVYYCAAAYYYYVSGWFDYWGQGTQVTVSS | low polyreactivity |
| QVQLVESGGGLVQAGGSLRLSCAASGSTFDWYAMGWYRQAPGKDRELVAAISSDDSTYYADSVKGRFTISRDNAKNTVYLQMNSLIPEDTAVYYCAVDVYSDYGDYGYWGQGTQVTVSS | low polyreactivity |
| QVQLVESGGGLVQAGGSLRLSCAASGSTFDYNAMGWYRQAPGKERELVAAISSGSRTNYADSVKGRFTISRDNAKNTVYLQMNSLKPEDTAVYYCAAKAYFYRRTQSRFSLYYYWGQGTQVTVSS | high polyreactivity |
| QVQLVESGGGLVQAGGSLRLSCAASGSTFDYNTMGWYRQAPGKERELVAAISESGGSTYYADSVKGRFTISRDNAKNTVYLQMNSLKPEDTAVSYCATDDFGGYFGEYDYWGQGTQVTVSS | low polyreactivity |
| QVQLVESGGGLVQAGGSLRLSCAASGSTFDYYAMGWSRQAPGKERELVAGITGGGSTYYADSVKGRFTISRDNAKNTVYLQMNSLKPEDTAVYYCNAGPALRYDYWGQGTQVTVSS | low polyreactivity |
| QVQLVESGGGLVQAGGSLRLSCAASGSTFDYYAMGWYRQAPAKERELVAVISRSGGSTYYADSVKGRFTISRDNAKNTVYLQMNSLKPEDTAVYYCAKSRPSKYDYWGQGTQVTVSS | high polyreactivity |
| QVQLVESGGGLVQAGGSLRLSCAASGSTFDYYAMGWYRQAPGKERELVAAISRTGGRTYYADSVKGRFTISRDNEKNSVYLQMHSLKPEESAVYYCNSVTRIGGGDYDYWGQGTQVTVSS | low polyreactivity |
| QVQLVESGGGLVQAGGSLRLSCAASGSTFDYYAMGWYRQAPGKERELVAAISSSGSRTHYADSVKGRFTISRDNAKNTVYLQMNSLKPEDTAVYYCATYTKYWRYPYDYWGQGTQVTVSS | high polyreactivity |
| QVQLVESGGGLVQAGGSLRLSCAASGSTFDYYAMGWYRQAPGKERELVAAISSSGSSTYYADSVKGLFTISRDNAKNTVYLQMNSLKPEDTAVYYCAKGTNYRDDYWGQGTQVTVSS | low polyreactivity |
| QVQLVESGGGLVQAGGSLRLSCAASGSTFDYYAMGWYRQAPGKERELVAAITGTGGSTYYADSVKGRFTISRDNAKNTVYLQMNSLKPEDTAVYYCAADTYLGWSYYWGQGTQVTVSS | high polyreactivity |
| QVQLVESGGGLVQAGGSLRLSCAASGSTFDYYDMGWYRQAPGKERELVAAINWSGGSTYYADSVKGRFTISRDNAKNTVYLQMNSLKPEDTAVYYCAADLSSRGISQDDYWGQGTQVTVSS | high polyreactivity |
| QVQLVESGGGLVQAGGSLRLSCAASGSTFDYYPMGWYRQAPGKERELVAAITYSGGRTSYADSVKGRFTISRDNAKNTVYLQMNSLKPEDTAVYYCAAVYDGQYYASYSTYDYDYWGQGTQVTVSS | low polyreactivity |
| QVQLVESGGGLVQAGGSLRLSCAASGSTFEDNTMGWYRQAPGKERELVAAISNSGGSTYYADSVKGRFTISRDNAKNTVYLQMNSLKPEDTAVYYCAADFYDPFDYWGQGTQVTVSS | low polyreactivity |
| QVQLVESGGGLVQAGGSLRLSCAASGSTFEDYAMGWYRQAPGKERELVAVITGNGGSTNYADSVKGRFTISRDNAKNTVYLQMNSLKPEDTAVYYCAADFYTFVRSDYWGQGTQVTVSS | low polyreactivity |
| QVQLVESGGGLVQAGGSLRLSCAASGSTFEFYAMGWYRQAPGKERELVAAISSIGGSTYYADSVKGRFTISRDNAKNTVYLQMNSLKPEDTAVYYCAATSDSSLYVYWGQGTQVTVSS | low polyreactivity |
| QVQLVESGGGLVQAGGSLRLSCAASGSTFEKNAMGWYRQAPGKERELVAAISNGVSTYYADSVKGRFTISRDNAKNTVYLQMNSLKPEDTAVYYCAADLFFGAETVYYDKFDYWGQGTQVTVSS | low polyreactivity |
| QVQLVESGGGLVQAGGSLRLSCAASGSTFENNVMGWYRQAPGKERELVATITWGDGSTSYADSVKGRFTISRDNAKNTVYLQMNSLKPEDTAVYYCAADDRIGYGKNKDHDYWGQGTQVTVSS | low polyreactivity |
| QVQLVESGGGLVQAGGSLRLSCAASGSTFEPNAMGWSRQEPGKERELVASITSSGGSTYYADSVKGRFTISRDNAKNTVYLQMKSLKPEDTAVYYCNARVPPQGWGPWKAFDYWGQGTQVTVSS | low polyreactivity |
| QVQLVESGGGLVQAGGSLRLSCAASGSTFEQYAMGWYRQAPGKERELVAAISGSGTRTYYADSVKGRFTISRDNAKNTVYLQMNSLKPEDTAVYYCAARFSYPAIHQAYYHWGQGTQVTVSS | high polyreactivity |
| QVQLVESGGGLVQAGGSLRLSCAASGSTFERNTMGWYRQAPGKERELVASISRGDGTYADSVKGRFTISRDNAKNTVYLQMNSLKPEDTAVYYCAAVQRESGSDYDYWGQGTQVTVSS | low polyreactivity |
| QVQLVESGGGLVQAGGSLRLSCAASGSTFERYAMGWYRQAPGKEREFVATINWGGGSTYYADSVKGRFTISRDNAKNTVYLQMNSLKPEDTAVYYCNAYVLYQSWRFSYDCWGQGTQVTVSS | low polyreactivity |
